Experimental data published in US20140142160.

System: Ezh2 (native PRC2) (Mus musculus)
Assay: pulldown
Details: RIP-seq WT RPKM

Substance	binding signal (Ezh2-/- RPKM 3.27)	binding signal (Ezh2-/- RPKM 0)
Tsix RNA	10.3 RPKM	
Xist/RepA endogenous RNA		4.18 RPKM
